From the nanobody polyreactivity screen of Harvey et al. (2022)

Assay: yeast display, Sf9 membrane polyspecificity reagent, FACS + sequencing; frameworks hold sequencing errors
In short: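 Galactose-induced (36–48 hours) yeast carrying a synthetic nanobody display library were exposed to 10% biotinylated, detergent-solubilized Sf9 membrane reagent at 4 °C for 1 hour. FACS followed streptavidin microbead enrichment, using low and high (top ~1%) gates for expression (anti-HA) and reagent binding (streptavidin). Colony PCR, MiSeq 2 × 250 sequencing and CDR-length filtering followed. Labels for polyreactivity reflect the gate of origin.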

Sequence | polyreactivity (PSR sort gate)
QDQLVESGRGLVEAGGSLRLSCAASGRILGRYAMGWNRQAPGKERELVAAISRSGGTTYYADSVKGRFTISRDNAKNTVYLEMNSLKPEDTAVYDCARLRVYAAVYDYWGQGTQVTVSS | high polyreactivity
QVQLVESGGGLVQAGGSLRLSCAASGFIFPYNAMGWYRQAPGKDRELVAAISWSGSNTYYADSVNGRFTISRDNAMNTVYLQMNSLKPEDTAVYYCAARHSVYYFVQRNGRYGYWGQGTQVTVSW | high polyreactivity
QVQLVESGGGLVQAGGSLRLSCAASGRTFRYYAMGWNRQAPGKESELVASISRSGGSTYYADSVKGRFTISRDNAKITVYLQMNSLKPEDTAVYYCAVGKGSHYLGFDYWGQGTQVTVSS | high polyreactivity
QVQLVESGGGIVQAGGSLRLSCAASGFKFKFYVMGWYRQAPGKERELVAAISRNSVSTYYADSVKGRFTISRDNAKNTVYLQMNSLKPEDTAVYYCAAKGPRQYNHWGQGTQVTVSS | high polyreactivity
QDPLVESGGGVVQAGGSLRLSCAASGSTFSDYAMGWYRQAPGKERELVAAISVSDGSTYYADSVKGRFTISRDIAKNSVYLQMNSLKPEETAVYYCAAEYPYFVYSYFRFDYWGQGTQVTVSS | low polyreactivity
QVQLVESGGGLVQAGGSLRLSCAASGSIFVVYAMGWYRQAPGKARALVAAITSDDDTNYADSVKGRFTLSRDNAKNTVYLQMNSLKPEDTAVYYCAKEVWLAINTRTGYEVYYWGQGTQVTVTS | low polyreactivity
QVHLEESGGGIVQAGGSLRLSCAASGSNFGYNAMGWYRQAPGKEREFVARISSRDDRTSYADSVKGRFTISRDNAKNTVYLQMNSLKPEDTAVYYFAAVRFFLTRAWRPLNYWGQGTIVTVSS | high polyreactivity
QVQLVESGGGLVQAGGSLRLSCAASGSNFYSYAMGWYRQAPGKESELVAAITKSSGSTYYAASVKGRFTISRDYAKNTVYLQMNSLKPEDTAVYYCAATRYRPVRLYYWGQGTQVTVSS | high polyreactivity
QVHLVESGGGLVQAGGSLRLSCGASGIIFFHYAMGWYRQAPGKERELVAAITWSGGYTYYADSVKGRFTISRDNAKNTVYLQMNSLKPEDTAVYYCNAVLHRRLYDYWGQGTQVTVSS | high polyreactivity
QVQLVESGGGLVQAGGSLRLSCAASGNTDVGYAMGWYRQAPGKETEFVAAISSRTGRTYYADTVKGRFTISRDNAKNTVFLQMISLKPEDTAVYYCAAVRGAPRYRYDYWGQGTQVTVSS | high polyreactivity
QVQLVESGGGLVQAGGSLRLSCAASGSIFRSNAMGWYRQAPGKERELVAAITSGTRKYYADSVKGRFTISRDNAKNTVYLQMNSLKPEDTAVYYCATKGSKYDRGYWGQGTQVTVSS | high polyreactivity
QVQLVESGGGLVQAGASLRLSCAASGYIFVRYAMGWYRQAPGKEREFVAAISSSGGSTRYADSVKVRFTISRDNAKNTVYLQMNSLKPEDTAVYYCAATRVARHGSPMYYWGQGTKVTVSS | high polyreactivity
QFQLVESGGGLVQAGGSLRLSCAASGRIFDVNAMGWSRQAPGKESELVAAISTRGGGTYYADSVKGRFTISRDNAKNTVYLQMTSLKPEDTAVYYCNVVRRYGGRGIDYWGQGTQVTVSS | low polyreactivity
QVQLVESGGGLVQAGGSLRLSCAASGPIFTSNAMGWYRQAPGKERELVAAISRRGTRTYYADSVKGRFTISRDNAKNTVYLQMNSLKPEDTAVYYCAATTGEQEYYWGQGTQVTVSS | high polyreactivity
QVQLVESGGGLVQAGRSLRLSCAASGSTILYYAMGWYRQAHGKERELVARITTRGSRTYYADSVKGRFTISRDNAKNTVYLQMNSLKPEDTAVYYCNKVRPGYGVTYLVGYWGQGTQVTVSS | high polyreactivity
QVQLVESGGGLVQAGGSLRLSCAASGSTFNFNAMGWYRQAPGKERELVAAISFSGGSTYYADSVKGRFTISRDNAKNTVYLQMNSLKPEDTAVYYCRPYSRGYGYWGQGTQVTVSS | high polyreactivity
QVQLVESGGGLVQAGGSLRLSCAASGFTFQGYVMGWYRQAPGKERELVARITNDGSTTYADSVKGRFTISRDNAKNTVYLQMNTLKPEDTAVYYCARPYRFWRYYGMYYWGQGTQVTVSS | high polyreactivity
QVQLVESGGGLVQAGGSLRLSCAASGSIFFGYAMGWYRPAPGKERELVAAISSDGSTYYADSVKGRFTISRDNAKNTVYLQMNSLKPEDTAVYYCNAEQAIFYWYATVTYDYWGQGTQVTVSS | low polyreactivity
QVHLVESGGGLVHAGGSLRLSCAASGSTFYPYAMGWYRQAPGKERELVAAISISGTTYYADSVKGRFTISRDNAKNTVYLQMNCLKPEDTAVYYCAKRAWVRRYPGRVGYNMYYWGQGTQVSVSS | high polyreactivity
QVQLVESGGGLVQAGGSLRLSCAASGSIFFYNVMGWYRQAPGKERELVASISWRGASTYYADSVKGRFTISRDNAKNTVYLQMNSLKPEDTAVYYCAARFGSATRYQTGYYWGQGTQVTVSS | high polyreactivity
QVQLVESGGGLVQAGGSLRLSCAASGFIFPTYAMGWYRQATGKERELVAAISYRGGITSYADSVKGRFTISRDNAKNTVYLQMNSLKPEDSAVYYCAARGAWGYEYWGQGTQVTVSS | low polyreactivity
QVHLVESGGGLVQAGGSLRLSCAASGRTFWVYAMGWYRQAPGKERQLVAAINRRGGGTYYADSVKGRFTISRDNAKNTVYLQMNTLKPEDTAVYYCAAVSTRVRVNYDSWGQGTQVTVSS | high polyreactivity

Sequence | polyreactivity (PSR sort gate)
QVQLVESVGGLVQAGGSLRLSCAASGRTFKFYAMGWYRQAPGKERELVAAISSSGGRTYYADSVKGRFTISRDIAKNTVYLQMNSLKPVDTAVYYCARSSDYYFFGHYYWGQGTQVTVSS | high polyreactivity
QVQLVESGGGLVQAGGSLRLSCAASGSTFRRNAMGWYRQAPGKEREFVAAISSRGGSTYYADSVKGRFTISRDNAKNTVYLQMNSLKPEDTAVYYCAADKASRHSNPFYYWGQGTQVTVSS | high polyreactivity
QVQLVESGGGLVQAGGSLRLSCAASGRTFRGNAMGWYRQAPGKERELVATINSGASTNYADSVKGRFTISRDNAKNPVYLQMNSLNPEDTAVYYCAAVKYFRWKYNYWGQGTQVTVSS | high polyreactivity
QVQLVESGLGLVQAGASLRVSCAASGSTFIFNTMGWSRQAPGKERELVAAIRLSGGSTYYADSVKGRFTITRDNAKNTVYLQMNSLNPEDTAVYYCARRLATRGHTYDYWGQGTQVTVSS | low polyreactivity
QVQLVESGGGLVQAGGSLRLSCAASGSTFYSYAMGWYRQAPGKERELVAAIDSGGSTYYADTVKGRFTISRDNAKTTVYLQKNSLKPEDTAVYYCAVRVTSYYRTKDYWGQGTQVTVSS | low polyreactivity
QVQLVESGGGLVQAGGSLRLSCAASGRTFTTIAMGWYRQAPGKERELVSAINSGGSTNYADSVKGRFTISRDNAKNTVYLQMNSLKPEDTAVYYCAKRQRDYSSVFDVDYWGQGTQVTVSS | low polyreactivity
QVQLVESGGGLVQAGGSLRLSCAASGSTFVWNAMGWYRQAPGKERELVATITLSTGSSYYADSVKGRFTISRDNAKNTVYLQMNSLKPEDTAVYYCNTEIYVDIISDYGYWGQGTQLTVSS | low polyreactivity
QVQLVESGGRLVQAGGSLRLSCAASGFIFEDYAMGWYRQAPGKERELVAAITWRGGSTYYADSVKGRFTISRDHAKTTVYLQMNSLKPEDTAVYYCAAEDYWGWRDYWGQGTQVTVSS | high polyreactivity
QVQLVESGGGLVQAGGSLRLSCAASGRVYAMGWYRQAPGKERELVAAISRNGGSTYYADSVKGRFTISRDNAKNNVYLQMNSLKPEDTAVYYCNKYSGYKGTDGGDYWGQGTQVTVSS | low polyreactivity
QVQLVESGGGLVQAGGSLRLSCAASGRTFFGYAMGWYRQAPGTERELVAAINWGGASTYYADSVKGRFTISRDNAKNTVYLQMNSLKPEATAVYYCAADSVPSRPTYGRYDYWGQGTQVTVSS | low polyreactivity
HVQLVESGGGLVQAGGSLRLSCAASGRILVHNAMGWYRQAPGKERELVAVITARGASTYYADSVKGRFTISRDNAKNSVYLQMNSLKPEDTAVYYCATDKRPKYYNQYDYWGQGTQVTVSS | low polyreactivity
QVQLVESGGGLVQAGGSLRLSCAASGSIFRGYTMGWYRQAPGKERELVAAISRSGGSTYYADSVKGRFTISRDNAKNTVYIQMNSLKPEDTAVYYCNVVYFVTTSPGYDYWGQGTQVTVSS | high polyreactivity
QVQLVESGGGIVQAGGSLRLICAASGSIFSSNAMGWYRQAPGKERELVAAISYSGGGTYYADSVKGRFTISRDNEKNTVYLQMNSLKAEDTAVYYCAVGILFGHYDYLGQGTQVTVSS | high polyreactivity
QVQLVESGGGLVQAGGSLRLSCAASGLTFVSYVMGWYRQAPGKERELVAAISSSGGRTYYADSVKGRFTISRDNAKNTVYLQMNSLKPEDTAVYYCAVYGYHEGGYWGQGTQVTVSS | high polyreactivity
QVQLVESGGGLVQAGGSLRLSCAASGLTFWYYGMGWYRQAAGKERELDAAISKTGGRTYYADSVKGRFTISRDNAKNTVYLQMNSLKPEDTAVYYCAADTDVLKGTTGFEYWGQGTQVTVSS | low polyreactivity
QVQLVESGGALVQAGGSLRLSCAASGSIFRYNAMGWYRQAPGKEREFVAIISYSGVRTYYADSVKGRFTISRDNAKNTVYLQMNSLKPADTAVYYCAADFKQKGHRTRTTYWGQGTQVTVSS | high polyreactivity
QVQLVESGGGLVQAGGSLRLSCAASGITFQIYAMGWYRQAPGKERELVAAISRSGGSSTNYADSVKGRFTISRDNAKNTVYLQMYSLNPEDTAVYYCAAVSPYTGGANDYWGQGTQVTVSS | high polyreactivity
QGQRVESGGGLVQAGGSLRLSCAASGSIFSYNTMGWYRQAPGKEREFVATIDWRDGSTYYADSVKGRFTISRDNAKNTVYLQMNSLKPEDTAVYYCATYYIVVEDNYWGQGTQVTVSS | high polyreactivity
QVQLVESGGGLVQAGGSLRLSCAASGLTLRNYAMGWYRQAPGKERELVAAITTGGGRTYYADSVKGRFTISRDYAKNTVFLQMKSLKPEDTAVYYCAAEGAILSSDKQSLWRFDYWGQGTQVTVSS | low polyreactivity
QVQLVESGGGLVQAGGSLRLSCAASGRTFTRYARGWYRQAPGKERELVAVISWSVGSTYYADSVKGRFTISRDNAKNTVYLQMNSLKPEDTAVYYCNSDVLSWSQEYDYWGQGTQVTVSS | low polyreactivity
QVQLVESGGGLVQAGGSLRLSCAASGLTFRPYTMGWYRQAPGKERELVAAISARGGRTYYADSVKGRFTISRDNAKNTVYLQMNSLKPEDTAVYYCATLETTGVNYWGQGTQVTVSS | high polyreactivity
